Assay results as given in IntAct's records for PubMed 35512704.

B1: Speckle-type POZ protein (Homo sapiens), O43791 (parent)
chain: MSRVPSPPPPAEMSSGPVAESWCYTQIKVVKFSYMWTINNFSFCREEMGEVIKSSTFSSGANDKLKWCLRVNPKGLDEESKDYLSLYLLLVSCPKSEVRAKFKFSILNAKGEETKAMESQRAYRFVQGKDWGFKKFIRRDFLLDEANGLLPDDKLTLFCEVSVVQDSVNISGQNTMNMVKVPECRLADELGGLWENSRFTDCCLCVAGQEFQAHKAILAARSPVFSAMFEHEMEESKKNRVEINDVEPEVFKEMMCFIYTGKAPNLDKMADDLLAAADKYALERLKVMCEDALCSNLSVENAAEILILADLHSADQLKTQAVDFINYHASDVLETSGWKSMVVSHPHLVAEAYRSLASAQCPFLGPPRKRLKQS
partner: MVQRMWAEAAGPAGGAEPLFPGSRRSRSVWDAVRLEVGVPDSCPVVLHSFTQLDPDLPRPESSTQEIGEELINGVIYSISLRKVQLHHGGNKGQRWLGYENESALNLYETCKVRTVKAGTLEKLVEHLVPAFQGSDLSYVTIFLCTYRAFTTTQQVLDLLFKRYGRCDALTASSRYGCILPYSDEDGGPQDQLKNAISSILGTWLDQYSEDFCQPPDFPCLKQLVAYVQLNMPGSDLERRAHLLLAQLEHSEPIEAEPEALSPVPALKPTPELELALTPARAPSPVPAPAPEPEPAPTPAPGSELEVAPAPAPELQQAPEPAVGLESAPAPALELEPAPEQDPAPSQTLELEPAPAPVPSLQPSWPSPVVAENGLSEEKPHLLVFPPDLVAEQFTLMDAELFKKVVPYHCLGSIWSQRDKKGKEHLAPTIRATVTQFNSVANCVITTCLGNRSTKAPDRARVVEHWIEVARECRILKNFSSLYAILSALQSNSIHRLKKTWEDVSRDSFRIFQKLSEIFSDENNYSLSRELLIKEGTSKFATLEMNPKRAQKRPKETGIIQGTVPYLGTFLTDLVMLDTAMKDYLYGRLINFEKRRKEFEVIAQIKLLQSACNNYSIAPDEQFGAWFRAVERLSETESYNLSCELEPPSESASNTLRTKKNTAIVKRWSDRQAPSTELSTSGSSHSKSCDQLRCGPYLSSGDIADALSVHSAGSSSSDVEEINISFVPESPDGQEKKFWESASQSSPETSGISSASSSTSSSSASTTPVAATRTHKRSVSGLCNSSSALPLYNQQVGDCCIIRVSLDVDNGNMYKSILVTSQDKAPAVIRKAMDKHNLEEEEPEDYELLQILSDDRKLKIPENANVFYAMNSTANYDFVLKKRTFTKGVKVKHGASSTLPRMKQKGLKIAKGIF
B2: Speckle-type POZ protein (Homo sapiens), O43791 (parent)
chain: B1 chain
partner: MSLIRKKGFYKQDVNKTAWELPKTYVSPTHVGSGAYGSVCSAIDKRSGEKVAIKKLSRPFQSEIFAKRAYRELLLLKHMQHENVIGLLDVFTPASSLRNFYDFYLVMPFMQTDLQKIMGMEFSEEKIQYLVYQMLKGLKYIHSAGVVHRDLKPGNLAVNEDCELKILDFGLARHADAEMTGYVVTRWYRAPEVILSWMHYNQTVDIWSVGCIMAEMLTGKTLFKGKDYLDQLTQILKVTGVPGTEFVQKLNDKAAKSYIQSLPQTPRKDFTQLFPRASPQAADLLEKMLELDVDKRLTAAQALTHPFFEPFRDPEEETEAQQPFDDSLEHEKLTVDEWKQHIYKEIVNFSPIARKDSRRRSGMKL
B3: Speckle-type POZ protein (Homo sapiens), O43791 (parent)
chain: B1 chain
partner: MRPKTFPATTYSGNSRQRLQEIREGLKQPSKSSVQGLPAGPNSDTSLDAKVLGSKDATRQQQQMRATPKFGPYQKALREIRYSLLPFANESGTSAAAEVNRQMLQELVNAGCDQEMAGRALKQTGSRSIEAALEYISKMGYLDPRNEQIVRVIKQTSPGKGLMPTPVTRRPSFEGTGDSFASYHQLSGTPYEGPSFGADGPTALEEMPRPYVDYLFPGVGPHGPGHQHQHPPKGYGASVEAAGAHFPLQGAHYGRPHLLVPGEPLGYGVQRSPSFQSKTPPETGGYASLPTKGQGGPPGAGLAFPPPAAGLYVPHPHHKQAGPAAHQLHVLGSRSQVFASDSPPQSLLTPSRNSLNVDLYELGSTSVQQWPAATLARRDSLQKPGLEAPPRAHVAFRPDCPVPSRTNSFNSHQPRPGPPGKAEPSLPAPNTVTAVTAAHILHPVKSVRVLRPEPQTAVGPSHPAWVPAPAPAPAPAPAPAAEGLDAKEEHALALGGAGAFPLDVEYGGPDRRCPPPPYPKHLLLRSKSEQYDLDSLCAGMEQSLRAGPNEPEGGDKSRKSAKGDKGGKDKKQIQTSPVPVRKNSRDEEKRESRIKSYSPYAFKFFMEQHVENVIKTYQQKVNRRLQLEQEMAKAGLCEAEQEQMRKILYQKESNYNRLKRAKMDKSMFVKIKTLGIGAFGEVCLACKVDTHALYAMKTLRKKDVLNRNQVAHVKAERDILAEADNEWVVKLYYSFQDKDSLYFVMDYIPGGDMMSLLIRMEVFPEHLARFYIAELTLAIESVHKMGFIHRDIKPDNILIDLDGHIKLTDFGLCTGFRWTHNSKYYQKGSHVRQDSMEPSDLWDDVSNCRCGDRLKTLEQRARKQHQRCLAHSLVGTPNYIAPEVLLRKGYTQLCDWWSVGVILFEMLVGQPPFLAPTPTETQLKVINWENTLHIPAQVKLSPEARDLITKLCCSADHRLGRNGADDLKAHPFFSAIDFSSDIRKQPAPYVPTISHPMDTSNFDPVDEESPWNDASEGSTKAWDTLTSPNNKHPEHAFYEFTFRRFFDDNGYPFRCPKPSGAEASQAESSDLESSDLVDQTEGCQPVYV
B4: Speckle-type POZ protein (Homo sapiens), O43791 (parent)
chain: B1 chain
partner: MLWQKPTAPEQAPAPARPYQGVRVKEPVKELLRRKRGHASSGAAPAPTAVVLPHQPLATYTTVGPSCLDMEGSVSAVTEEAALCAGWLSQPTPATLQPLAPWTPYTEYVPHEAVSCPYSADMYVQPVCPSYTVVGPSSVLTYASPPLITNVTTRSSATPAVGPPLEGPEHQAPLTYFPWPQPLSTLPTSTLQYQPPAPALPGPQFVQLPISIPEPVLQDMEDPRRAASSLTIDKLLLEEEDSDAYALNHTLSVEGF
B5: Speckle-type POZ protein (Homo sapiens), O43791 (parent)
chain: B1 chain
partner: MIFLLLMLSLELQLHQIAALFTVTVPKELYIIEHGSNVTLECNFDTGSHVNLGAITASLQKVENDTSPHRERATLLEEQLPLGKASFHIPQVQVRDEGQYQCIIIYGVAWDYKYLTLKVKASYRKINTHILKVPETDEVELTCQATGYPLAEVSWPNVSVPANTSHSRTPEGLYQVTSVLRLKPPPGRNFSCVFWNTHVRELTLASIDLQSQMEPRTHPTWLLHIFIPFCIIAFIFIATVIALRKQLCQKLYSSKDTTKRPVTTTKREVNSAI
B6: Speckle-type POZ protein (Homo sapiens), O43791 (parent)
chain: B1 chain
partner: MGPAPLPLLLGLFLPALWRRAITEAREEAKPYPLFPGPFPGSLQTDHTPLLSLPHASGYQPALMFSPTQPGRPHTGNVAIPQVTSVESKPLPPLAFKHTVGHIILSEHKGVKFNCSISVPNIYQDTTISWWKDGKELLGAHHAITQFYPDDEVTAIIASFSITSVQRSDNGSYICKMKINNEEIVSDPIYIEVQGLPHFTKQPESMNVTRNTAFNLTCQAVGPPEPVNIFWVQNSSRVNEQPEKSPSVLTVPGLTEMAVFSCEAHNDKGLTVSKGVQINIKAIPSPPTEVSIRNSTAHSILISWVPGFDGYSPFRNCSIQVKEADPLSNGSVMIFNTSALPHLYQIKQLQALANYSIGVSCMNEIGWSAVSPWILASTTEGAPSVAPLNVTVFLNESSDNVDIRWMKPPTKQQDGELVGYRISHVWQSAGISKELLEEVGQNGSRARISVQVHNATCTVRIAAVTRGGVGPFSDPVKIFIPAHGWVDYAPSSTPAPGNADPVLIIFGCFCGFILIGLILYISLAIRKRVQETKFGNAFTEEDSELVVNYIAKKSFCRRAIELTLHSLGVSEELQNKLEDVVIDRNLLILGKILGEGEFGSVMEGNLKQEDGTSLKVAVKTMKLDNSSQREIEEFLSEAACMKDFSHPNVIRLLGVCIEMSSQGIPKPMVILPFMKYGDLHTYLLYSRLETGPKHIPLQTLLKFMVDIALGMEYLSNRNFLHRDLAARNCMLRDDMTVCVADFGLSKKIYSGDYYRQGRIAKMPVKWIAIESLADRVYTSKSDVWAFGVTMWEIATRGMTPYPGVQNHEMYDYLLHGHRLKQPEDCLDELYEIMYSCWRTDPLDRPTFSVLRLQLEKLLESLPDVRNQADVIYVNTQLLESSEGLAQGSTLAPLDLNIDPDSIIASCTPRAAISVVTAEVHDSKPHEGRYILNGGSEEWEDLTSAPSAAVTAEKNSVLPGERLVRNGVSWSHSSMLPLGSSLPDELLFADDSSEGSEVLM

Variants of: B1
Conditions: with gnds_human RALGDS

Variant	effect of a mutation on the interaction
Y87C	with no effect

Variants of: B1
Conditions: with gnds_human RALGDS
Remark: another data set of the same source

Variant	effect of a mutation on the interaction
F102C	with no effect

Variants of: B1
Conditions: with gnds_human RALGDS
Remark: another data set of the same source

Variant	effect of a mutation on the interaction
F133L	with no effect

Variants of: B1
Conditions: with gnds_human RALGDS
Remark: another data set of the same source

Variant	effect of a mutation on the interaction
F133V	with no effect

Variants of: B2
Conditions: with mk13_human MAPK13, O15264

Variant	effect of a mutation on the interaction
F102C	with no effect

Variants of: B2
Conditions: with mk13_human MAPK13, O15264
Remark: another data set of the same source

Variant	effect of a mutation on the interaction
Y87C	with no effect

Variants of: B2
Conditions: with mk13_human MAPK13, O15264
Remark: another data set of the same source

Variant	effect of a mutation on the interaction
F133V	with no effect

Variants of: B2
Conditions: with mk13_human MAPK13, O15264
Remark: another data set of the same source

Variant	effect of a mutation on the interaction
F133L	with no effect

Variants of: B3
Conditions: with lats2_human LATS2, Q9NRM7

Variant	effect of a mutation on the interaction
F133L	with no effect

Variants of: B3
Conditions: with lats2_human LATS2, Q9NRM7
Remark: another data set of the same source

Variant	effect of a mutation on the interaction
F133V	with no effect

Variants of: B3
Conditions: with lats2_human LATS2, Q9NRM7
Remark: another data set of the same source

Variant	effect of a mutation on the interaction
F102C	with no effect

Variants of: B3
Conditions: with lats2_human LATS2, Q9NRM7
Remark: another data set of the same source

Variant	effect of a mutation on the interaction
Y87C	with no effect

Variants of: B4
Conditions: with obf1_human POU2AF1, Q16633

Variant	effect of a mutation on the interaction
F102C	with no effect

Variants of: B4
Conditions: with obf1_human POU2AF1, Q16633
Remark: another data set of the same source

Variant	effect of a mutation on the interaction
F133L	with no effect

Variants of: B4
Conditions: with obf1_human POU2AF1, Q16633
Remark: another data set of the same source

Variant	effect of a mutation on the interaction
F133V	with no effect

Variants of: B4
Conditions: with obf1_human POU2AF1, Q16633
Remark: another data set of the same source

Variant	effect of a mutation on the interaction
Y87C	with no effect

Variants of: B5
Conditions: with pd1l2_human PDCD1LG2, Q9BQ51

Variant	effect of a mutation on the interaction
F102C	with no effect

Variants of: B5
Conditions: with pd1l2_human PDCD1LG2, Q9BQ51
Remark: another data set of the same source

Variant	effect of a mutation on the interaction
Y87C	with no effect

Variants of: B5
Conditions: with pd1l2_human PDCD1LG2, Q9BQ51
Remark: another data set of the same source

Variant	effect of a mutation on the interaction
F133V	with no effect

Variants of: B5
Conditions: with pd1l2_human PDCD1LG2, Q9BQ51
Remark: another data set of the same source

Variant	effect of a mutation on the interaction
F133L	with no effect

Variants of: B6
Conditions: with mertk_human MERTK

Variant	effect of a mutation on the interaction
Y87C	with no effect

Variants of: B6
Conditions: with mertk_human MERTK
Remark: another data set of the same source

Variant	effect of a mutation on the interaction
F133V	with no effect

Variants of: B6
Conditions: with mertk_human MERTK
Remark: another data set of the same source

Variant	effect of a mutation on the interaction
F133L	with no effect

Variants of: B6
Conditions: with mertk_human MERTK
Remark: another data set of the same source

Variant	effect of a mutation on the interaction
F102C	with no effect
